Results published in US20100210517A1 (RAPTOR PHARMACEUTICAL, published 2010).
Numbering of substitutions follows the chain as printed.

Experiments:
LRP2 CR89 [1] = target: T1, LRP2 CR89 (human, UniProt P98164 1025-1102); test: solid-phase assay on coated CR protein, single-site non-linear fit
T1 construct: domain: CR89; also called YVWR; L2 CR89; not shown: N-terminal hexahistidine and S-peptide tags of pET30(+)a
Description: Data were plotted and fitted by non-linear regression with the assumption of a single binding site (GraphPad Prism). Kd values with standard deviations were derived from the regression analysis.
(§1) Solid phase binding assays-Purified, refolded CR protein (1 μg) was bound to Nunc Maxisorp™ 96-well plates in TBS pH 8 supplemented with 5 mM CaCl₂ (TBSC) overnight at 4° C. Wells were washed with TBSC and then blocked with TBSC containing 2% bovine serum albumin (BSA). […] Control wells contained no added ligand. As an additional control, to determine whether the absence of calcium affected binding, 10 mM EGTA was included in the incubation medium for some samples. […] Excess primary antibody was removed and wells washed before incubation with the secondary antibody, HRP-conjugated goat anti rabbit IgG (Bio-Rad). After washing, TMB substrate solutions (Bio-Rad) were added to detect HRP. Color development was stopped with 1N HCl. Absorption at 450 nm was measured with a microplate spectrophotometer (Molecular Devices). Data were plotted and Kd values derived by non-linear regression with the assumption of single-site binding (GraphPad Prism).

LRP2 CR89 [2] = target: T1, LRP2 CR89; test: as above; remark: listed apart in the source
Description: as §1

LRP2 CR89 R1088D [3] = target: T2, LRP2 CR89 R1088D (human, UniProt P98164 1022-1105); test: as above
T2 construct: also called YVWD
Description: as §1

LRP1 CR3-5 = target: T3, LRP1 CR3-5 (human); test: solid-phase assay; OD at the highest ligand concentration as percent of the highest OD of all ligands
T3 construct: range 852-973; also called L1 CR3-5
T3 sequence (Q07954 852-973): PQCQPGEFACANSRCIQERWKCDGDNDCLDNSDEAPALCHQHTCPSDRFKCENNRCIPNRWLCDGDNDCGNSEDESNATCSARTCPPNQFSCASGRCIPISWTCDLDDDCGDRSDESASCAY
Description: as §1

LRP2 CR89 [4] = target: T1, LRP2 CR89; test: as above
Description: as §1

LRP2 CR89 [5] = target: T1, LRP2 CR89; test: as above; remark: listed apart in the source
Description: as §1
(§2) To test this idea, mutant LRP2 CR89 were prepared in which the native, non-canonical residues at these positions were sequentially substituted with the non-native, canonical residues. As defined above, the A, C, A′, C′ string for LRP2 CR89 is YVWR. Mutants included LRP2 CR89 Y1042W (WVWR), LRP2 CR89 V1047D (YDWR), LRP2 CR89 R1088D (YVWD), LRP2 CR89 V1047D R1088D (YDWD), LRP2 CR89 Y1042W V1047D R1088D (WDWD), LRP2 CR89 Y1042W V1047D (WDWR), LRP2 CR89 Y1042W R1088D (WVWD).

LRP2 CR89 V1047D = target: T4, LRP2 CR89 V1047D (human, UniProt P98164 1022-1105); test: as above
T4 construct: also called YDWR
T4 sequence: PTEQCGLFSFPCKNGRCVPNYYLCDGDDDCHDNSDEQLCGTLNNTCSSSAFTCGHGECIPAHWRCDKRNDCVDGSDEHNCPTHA
Description: as §1, §2

LRP2 CR89 R1088D [6] = target: T2, LRP2 CR89 R1088D; test: as above
Description: as §1, §2

LRP2 CR89 Y1042W V1047D = target: T5, LRP2 CR89 Y1042W V1047D (human, UniProt P98164 1022-1105); test: as above
T5 construct: also called WDWR
T5 chain: T4 sequence with Y22W
Description: as §1, §2

LRP2 CR89 [7] = target: T1, LRP2 CR89; test: apparent Kd of the variant for the CR pair used in selection; no unit printed in Table 4, nM per Table 2 and paragraph 292

T1 sequence (P98164 1025-1102): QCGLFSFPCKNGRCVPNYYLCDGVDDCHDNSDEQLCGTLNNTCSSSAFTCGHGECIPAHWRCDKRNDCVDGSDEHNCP

B1: MegaRAP1 d3 (ligand)
chain: LDRLRRVSHQGYTTEAKFEEPRVIDLWDLAQSANLTDKELEAFREELKYFKAKIEAHNHYQKQLEIAHEELRHAESVGDGERVSRSREKHALLEGRTKELGYTVKKHLQDLSGRISRAR
notes: V175L lies outside the d3 construct; also called RAPv2A d3; RAP v2 d3; not shown: N-terminal hexahistidine and S-peptide tags of pET30(+)a
B1 gave a Kd (LRP2 CR89 [1]) of 0.038 µM, a Kd (LRP2 CR89 [2]) of 0.033 µM and a Kd (LRP2 CR89 R1088D [3]) of 0.078 µM. The “% max” value (LRP1 CR3-5) was 4%, the “% max” value (LRP2 CR89 [4]) was 88% and the “% max bind” value (LRP2 CR89 [5]) was 100%. The “% max bind” value (LRP2 CR89 V1047D) was 11%, the “% max bind” value (LRP2 CR89 R1088D [6]) was 55% and the “% max bind” value (LRP2 CR89 Y1042W V1047D) was 3%. The Kd (LRP2 CR89 [7]) was 0.038 µM.
